From patent US20100162415A1

Experiments:
Experiment in all cases: cell-based or functional assay
[1] = target: murine VEGF-A (muVEGF164) (mouse) (UniProt Q00731)
[2] = target: hum-X VEGF (mouse VEGF-A with 10 residues replaced by the human residues)
[3] = target: human VEGF-A (huVEGF165) (human) (UniProt P15692)
Sequence of UniProt P15692 (P15692 other isoform, or with tags, fused parts or gaps): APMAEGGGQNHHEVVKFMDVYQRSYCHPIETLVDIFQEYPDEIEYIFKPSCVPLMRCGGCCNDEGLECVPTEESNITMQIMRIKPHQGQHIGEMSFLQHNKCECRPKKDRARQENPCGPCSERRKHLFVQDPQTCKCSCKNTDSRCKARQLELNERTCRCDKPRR

Sequence of UniProt Q00731 (Q00731 other isoform, or with tags, fused parts or gaps): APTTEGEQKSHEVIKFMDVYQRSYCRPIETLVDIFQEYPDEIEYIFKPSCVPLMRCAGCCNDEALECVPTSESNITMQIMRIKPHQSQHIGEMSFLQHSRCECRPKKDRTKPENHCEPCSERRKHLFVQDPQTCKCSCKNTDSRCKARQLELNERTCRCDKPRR

IC50, inhibition of VEGF-stimulated bovine retinal capillary endothelial cell proliferation [1] [µg/mL]	IC50, inhibition of VEGF-stimulated bovine retinal capillary endothelial cell proliferation [2] [µg/mL]	IC50, inhibition of VEGF-stimulated bovine retinal capillary endothelial cell proliferation [3] [µg/mL]	Substance
0.5	0.076	0.052	B20-4.1 (antibody)
	0.0061		G6-31 (antibody)
	0.0027	0.00075	Y0317 (antibody)
